Measurements from publication PMC4356359, “The structure of bradyzoite-specific enolase from Toxoplasma gondii reveals insights into its dual cytoplasmic and nuclear functions”.

T1: TgENO1 (bradyzoite enolase 1) (Toxoplasma gondii, UniProt B9PH47 1-444)
T1 sequence: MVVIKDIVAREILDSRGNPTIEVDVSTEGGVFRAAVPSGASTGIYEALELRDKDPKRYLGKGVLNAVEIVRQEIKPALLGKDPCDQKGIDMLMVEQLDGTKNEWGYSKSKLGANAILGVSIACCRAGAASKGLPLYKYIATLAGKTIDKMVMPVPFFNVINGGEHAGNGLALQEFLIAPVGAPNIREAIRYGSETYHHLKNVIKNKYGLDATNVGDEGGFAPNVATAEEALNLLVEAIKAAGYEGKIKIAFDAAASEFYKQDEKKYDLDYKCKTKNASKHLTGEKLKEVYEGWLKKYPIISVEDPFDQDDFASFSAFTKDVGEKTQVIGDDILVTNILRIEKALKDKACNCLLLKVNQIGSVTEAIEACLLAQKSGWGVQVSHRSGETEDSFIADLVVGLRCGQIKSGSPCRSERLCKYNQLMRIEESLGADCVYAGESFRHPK

B1: TgMAG1 probe (TTTTCT motif) (dsDNA)
DNA 1: TTTTCTTCTCAAGA
DNA 2: TCTTGAGAAGAAAA
B2: probe B (c-Myc promoter TATA box) (dsDNA)
DNA 1: ATATAAAATCCGTA
DNA 2: TACGGATTTTATAT
B3: probe C (random negative control) (dsDNA)
DNA 1: TTCTCCTGTGTCAT
DNA 2: ATGACACAGGAGAA

Target: T1, TgENO1 (bradyzoite enolase 1)
Experiment: EMSA; EMSA with Thermo Scientific band-shift kit per manufacturer; buffer, salt, pH and temperature not stated (protein stock 10 mM Tris-HCl pH 8.3, 500 mM NaCl, 5 mM beta-mercaptoethanol)
Conditions: protein: recombinant; tags: N-terminal His-TEV (pCCK-N'-HisTEV vector)

Binder	binding result
B1	binds
B2	no binding
B3	no binding
